The results in this text go back to the nanobody polyreactivity screen of Harvey et al. (2022).

This data set in a line: yeast display, Sf9 membrane polyspecificity reagent, FACS + sequencing; frameworks hold sequencing errors. The procedure, abridged:
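After 36–48 hours of galactose induction, yeast (Saccharomyces cerevisiae BJ5465) displaying a synthetic nanobody library were stained at 4 °C for 1 hour with 10% biotinylated, detergent-solubilized Sf9 membrane reagent. Streptavidin microbeads enriched the stained cells before FACS sorting into low and high (top ~1%) gates on anti-HA and streptavidin fluorescence. Each clone's polyreactivity label reflects its gate of origin.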
Turning to “QVQLVESGGGLVQAGGSLRLSCAASGRTFPSNVMGWYRQAPGKEREFVAAITTRGGNTRYADSVKGRFTISRDNAKNTVYLQMNSLKPEDTAVYYCAAKVKPGYDYWGQGTQVTVSS”, the “polyreactivity (PSR sort gate)” value is “low polyreactivity”.

With “QVQLVESGGGLVQAGGSLRLSCAASGRTFPSYTMGWYRQAPGKERELVAAISKSGGNTYYADSVKGRFTISRDNAKNTVYLQMNSLKPEDTAVYYCNADTYALGAAVIPGDEYWGQGTQVTVSS”, the “polyreactivity (PSR sort gate)” value is on record as “low polyreactivity”.

“QVQLVESGGGLVQAGGSLRLSCAASGRTFPVNAMGWYRQAPGKERELVAAIRRRGGSTYYADSVKGRFTISRDNAKNTVYLQMNSRKPEDTAVYYCAADKSSSFSYSYGYWGHGTQVTVSS”: the “polyreactivity (PSR sort gate)” value is recorded as “low polyreactivity”.

Regarding “QVQLVESGGGLVQAGGSLRLSCAASGRTFPVYAMGWYRQAPGKERELVATIRRRDGSTYADSVKGRFTISRDNAKNTVYLQMNSLKPEDTAVYYCNAAYSQATPWYYAWYDYCGQGTQVTVSS”, the “polyreactivity (PSR sort gate)” value was “high polyreactivity”.

For “QVQLVESGGGLVQAGGSLRLSCAASGRTFPWYTMGWYRQAPGKERELVAAITRSSGSAYYADSVKGRFTISRDTAKNPVYLQMNSLKQEDTAVYYCAARYWVAGFRGRPYDYWGQGTQVTVSS”, the “polyreactivity (PSR sort gate)” value was “high polyreactivity”.

On to “QVQLVESGGGLVQAGGSLRLSCAASGRTFPWYVMGWYRQAPGKERELVAAISSGGGKYYADSVKGRFTISRDNAKNTVFLQMNSLKPEDTAVYYCAGRLYYRRSFVREMYYWGQGSQVTVSS”, for which the “polyreactivity (PSR sort gate)” value is listed as “high polyreactivity”.

Regarding “QVQLVESGGGLVQAGGSLRLSCAASGRTFPYKAMGWYRQAPGKERELVAVISSGGGRTYYADSVKGRFTISRDNAKNTVYLQMNSLKPEDTAVYYCNKGGYAIRYDYYWGQGTQVTVSS”, the “polyreactivity (PSR sort gate)” value is “high polyreactivity”.

With “QVQLVESGGGLVQAGGSLRLSCAASGRTFPYNAMGWYRQAPGKERELVAAITSSGGSTYYADSVKGRFTISRDNAKNTVYLQMNSLKPEDTAVYYCAKGYYSPNYYYWGQGTQVTVSS”, the “polyreactivity (PSR sort gate)” value was “high polyreactivity”.

In the case of “QVQLVESGGGLVQAGGSLRLSCAASGRTFPYNVMGWYRQAPRKERELVARITRGGSTDYADSVKGRFTISRDNAKNTVYLLMNSLKPEDTAVYYCAAAIGHFERFYWGQGTQVTVSS”, the “polyreactivity (PSR sort gate)” value is reported as “low polyreactivity”.

Take “QVQLVESGGGLVQAGGSLRLSCAASGRTFPYYAMGWYRQAPGKERELVAAISSSGGSTYYADSVKGRFTISRDNAKNTVNLQMNSLKPEDTAVYYCAARAPYSYSGYGYWGQGTQVTVSS”: the “polyreactivity (PSR sort gate)” value is given as “high polyreactivity”.

As to “QVQLVESGGGLVQAGGSLRLSCAASGRTFPYYAMGWYRQAPGKERELVATITRGGSTYYADSVKGRFTISRDNAKNTVYLQMNSLKPEDTAVYYCNADYWGHRFYFPGRRDYWGQGTQVTVSS”, the “polyreactivity (PSR sort gate)” value is “low polyreactivity”.

Turning to “QVQLVESGGGLVQAGGSLRLSCAASGRTFQDYAMGWYRQAPGKERELVAVINSGGSTYYADSVKGRFTISRDNAKNTVYLQMNSLKPEDTAVYYCAKGYWFYPWYHGYYWGQGTQVTVSS”, the “polyreactivity (PSR sort gate)” value is listed as “high polyreactivity”.

In the case of “QVQLVESGGGLVQAGGSLRLSCAASGRTFQFYAMGWYRQAPGKERELVAAITSGGSTYYADSVKGRFTISRDNAKNTVYLQMNSLKPEDTAVYYCNAKYNGYYRRFSEYDYWGQGTQVTVSS”, the “polyreactivity (PSR sort gate)” value is “high polyreactivity”.

Turning to “QVQLVESGGGLVQAGGSLRLSCAASGRTFQGYTMGWYRQAPGKERELVAAITGGVGSTYYADSVKGRFTISRDNAKNTVYLQMNSLKPEDTAVYYCNTVSYGYTDLYIFYTGYYYWGQGTQVTVSS”, the “polyreactivity (PSR sort gate)” value was “low polyreactivity”.

Turning to “QVQLVESGGGLVQAGGSLRLSCAASGRTFQIYAMGWYRQAPGKERELVAAISRRGGSTYYADSVKGRFTISRDNAKNTVYLQMNSLKPEDTAVYYCNVVHWRGEYSYAGYDYWGQGTQVTVSS”, the “polyreactivity (PSR sort gate)” value is on record as “high polyreactivity”.

With “QVQLVESGGGLVQAGGSLRLSCAASGRTFQKNTMGWYRQAPGKERELVAAIDYSATTTYYADSVKGRFTSSRDNAKNTVYLQMNSLKPEDTAVYYCAARWSYPRWEFDYWGQGTQVTVSS”, the “polyreactivity (PSR sort gate)” value is given as “high polyreactivity”.

“QVQLVESGGGLVQAGGSLRLSCAASGRTFQKYVMGWYRQEPGKEREIVAAISGGGGRTYYADSVKGRFTISRDNAKNTVYLQMNSLKPEDTAVYYCAARGLGKELDRFYYWGQGTQVTVSS”: the “polyreactivity (PSR sort gate)” value is recorded as “high polyreactivity”.

With “QVQLVESGGGLVQAGGSLRLSCAASGRTFQNNAMGWYRQAPGKERELVAAISRSGASTYYADSVKGRFTISRDNAKNTVYLQMNSLKPEDTAVYYCAARYQRTAYDYWGQGTQVTVSS”, the “polyreactivity (PSR sort gate)” value was “low polyreactivity”.

Regarding “QVQLVESGGGLVQAGGSLRLSCAASGRTFQPYAMGWYRQAPGKERELVAAITSIGGSTFYADSVKGRFTISRDNAKNTVYLQMNSLKPEDTAVYYCARRGYYRSIWERDYWGQGTQVTVSS”, the “polyreactivity (PSR sort gate)” value was “low polyreactivity”.

Regarding “QVQLVESGGGLVQAGGSLRLSCAASGRTFQQNAMGWYRQAPGKERELVAAINSRGGRTYYADSVKGRFTISRDYAKNTVYLQMNSLKPEDTAVYYCAARYYWGQGTQVTVSS”, the “polyreactivity (PSR sort gate)” value was “high polyreactivity”.

“QVQLVESGGGLVQAGGSLRLSCAASGRTFQRNAMGLYRQEPGKERELVAAISTRGGSTYYADSVKGRFTISRDNAKNTVYLQMNSLKPEDTAVYYCAKDPTLTRGYKEGGGYDYLGQGTQVTVSS”: the “polyreactivity (PSR sort gate)” value is reported as “high polyreactivity”.

With “QVQLVESGGGLVQAGGSLRLSCAASGRTFQVYAMGWYRQAPGKERELVAAISSSGGITYYADSVKGRFTISRDNAKNTVYLQMNSLKPEDTAVYYCNTLYVSSNEYWGQGTQVTVSS”, the “polyreactivity (PSR sort gate)” value is listed as “high polyreactivity”.

Regarding “QVQLVESGGGLVQAGGSLRLSCAASGRTFQWYTMGWYRQAPGKERELVAAISWSGTSTYYADSVKGRFTISRDIAKNTVYLQMNILNPEDTAVYYCAAEVIGRYYRLDYWGQGPQVTVSS”, the “polyreactivity (PSR sort gate)” value is recorded as “low polyreactivity”.

Turning to “QVQLVESGGGLVQAGGSLRLSCAASGRTFQWYTMGWYRQAPGKERELVAGISWRGGSTYYADSVKGRFTISRDNAKNTVYLQMNSLKPEDTAVYYCAALASRLTGRDYWGQGTQVTVSS”, the “polyreactivity (PSR sort gate)” value is on record as “high polyreactivity”.

On to “QVQLVESGGGLVQAGGSLRLSCAASGRTFQYNAMGWYRQAPGKERELVAAISWSGGSTYYADSVKGRFTISRDNAKNTVYLQMNSLKPEDTAVYYCNARTLFKWRHGHYYAYDYWGQGTQVTVSS”, for which the “polyreactivity (PSR sort gate)” value is “high polyreactivity”.

With “QVQLVESGGGLVQAGGSLRLSCAASGRTFQYYAMGWYRQAPGKERELVAAITSGGSTYYADSVKGRFTISRDNAKNTVYLQMNSLKPEDTAVYYCAATFYYSGHDDYWGQGTQVTVSS”, the “polyreactivity (PSR sort gate)” value was “low polyreactivity”.

For the sequence “QVQLVESGGGLVQAGGSLRLSCAASGRTFQYYAMGWYRQAPGKERELVAAITSGGSTYYADSVKGRFTISRDNAKNTVYLQMNSLKTEDTAVYYCAADFLYYSSGGKMDYWGQGTQVTVSS”, the “polyreactivity (PSR sort gate)” value is “low polyreactivity”.

Turning to “QVQLVESGGGLVQAGGSLRLSCAASGRTFQYYAMGWYRQAPGKERELVARINRSGGSTYYADSVKGRFTISRDNAKNTVYLQMNSLKPEDTAVYYCAADYLSRSPAYEHYYWGQGTQVTVSS”, the “polyreactivity (PSR sort gate)” value was “high polyreactivity”.

For “QVQLVESGGGLVQAGGSLRLSCAASGRTFQYYTMGWYRQAPGKERELVAAITWRGGTTYYADSVKGRFTISRDNAKNTVYLQMNSLKPEDTAVYYCAAYSPDYGFDYWGQGTQVTVSS”, the “polyreactivity (PSR sort gate)” value was “high polyreactivity”.

In the case of “QVQLVESGGGLVQAGGSLRLSCAASGRTFRANAMGWYRQAPGKERELVAAISQRGGNTYYADSVKGRFTISRDNAKNTVYLQMNSLKPEDTAVYYCAADITTYRRGRYEYEYWGQGTQVTVSS”, the “polyreactivity (PSR sort gate)” value is on record as “high polyreactivity”.

Regarding “QVQLVESGGGLVQAGGSLRLSCAASGRTFRANAMGWYRQAPGKERELVAAITWDGGSTYYADSVKGRFTISRDNAKNTVYLQMNSLKPEDTAVYYCNTDPYLWGQGTQVTVSS”, the “polyreactivity (PSR sort gate)” value is “low polyreactivity”.

Turning to “QVQLVESGGGLVQAGGSLRLSCAASGRTFRANTMGWYRQAPGKERELVAAINWSGGSTYYADSVKGRFTISRDNAKNTVYLQMNSLKPEDTAVYYCAKRVSVSYRKSTYDYWGQGTQVTVSS”, the “polyreactivity (PSR sort gate)” value is reported as “high polyreactivity”.

Take “QVQLVESGGGLVQAGGSLRLSCAASGRTFRAYAMGWYRQAPGKERELVAAITSGGSTYADSVKGRFTISRDNAKNTVYLQMNSLKPEDTAVYYCAADGYKLFYSKFRYVQYGYWGQGTQVTVSS”: the “polyreactivity (PSR sort gate)” value is listed as “high polyreactivity”.

For the sequence “QVQLVESGGGLVQAGGSLRLSCAASGRTFRAYAMGWYRQAPGKETELVASISRRGGSTYYADSVKGRFTISRDNAKNTVYLQMNSLKPEDSAVYYCAASDNYLQYDYWGQGTQVTVSS”, the “polyreactivity (PSR sort gate)” value is on record as “high polyreactivity”.

For the sequence “QVQLVESGGGLVQAGGSLRLSCAASGRTFRAYVMGWYRQAPGKERELVAAFTGDGGSTYYADSVKGRFTISRDNAKNTVYLQMNSLKPEDTAVYYCAAGYVTVYGYYEYWGQGTQVTVSS”, the “polyreactivity (PSR sort gate)” value is recorded as “high polyreactivity”.

Take “QVQLVESGGGLVQAGGSLRLSCAASGRTFRDYTMGWYRQAPGNERELVAAITSTGDTNYADSVKGRFTISRDNAKNTVYLQMNSLKPEDTALNYCATQTGEEYQAPLIYDYWGQGTQVTVSS”: the “polyreactivity (PSR sort gate)” value is “low polyreactivity”.

As to “QVQLVESGGGLVQAGGSLRLSCAASGRTFRFNAMGWYRQAPGKESELVAAISSSGRTYYADSVKGRFTISRDNAKNTVYLQMNSLKPEDTAVYYCNKDPYLKLKMDYWGQGTQVTGSS”, the “polyreactivity (PSR sort gate)” value is recorded as “high polyreactivity”.

Take “QVQLVESGGGLVQAGGSLRLSCAASGRTFRFYALGWYRQAPGKEREFVAAISRSVGSTYYADSVKGRFTISRDNAKHTVYLQMNSLKPEDTAVYYCAARVFRGLGEYYWGQGTQVTVSS”: the “polyreactivity (PSR sort gate)” value is “high polyreactivity”.

“QVQLVESGGGLVQAGGSLRLSCAASGRTFRFYAMGWYRQAPGKERELVAAISASGGGTYYADSVKGRFTISRDNAKHTVYLQMNCLKPEDTAVYYCATRRSYKYYWGQGTQVTVSS”: the “polyreactivity (PSR sort gate)” value is on record as “high polyreactivity”.

Turning to “QVQLVESGGGLVQAGGSLRLSCAASGRTFRGNAMGWYRQAPGKERELVATITFSGGSTYYADSVKWRFTISRDNAKNTVYLQMNSLKPEDTAVYYCAVRGLHLVWVPFGYDYWGQGTQVTVSS”, the “polyreactivity (PSR sort gate)” value is recorded as “low polyreactivity”.

On to “QVQLVESGGGLVQAGGSLRLSCAASGRTFRGYAMGWYRQAPGKEREFVAAITWTSGSTYYADSVKGRFTISRDNAKNTVYLQMNSLKPEDTAVYYCAARVYSQALRLWGNNYWGQGTQVTVSS”, for which the “polyreactivity (PSR sort gate)” value is listed as “high polyreactivity”.
